target: SARS-CoV-2 receptor-binding domain (RBD), prototype (SARS-CoV-2, UniProt P0DTC2); test: SPR

| Binder | Kd [nM] |
| --- | --- |
| sperm whale ACE2, mFc-tagged (Fc fusion) QSTTEEQAKTFLQKFDHEAEDLSYQSSLASWNYNTNITDENVQKMNAARAKWSAFYEEQSRTAKTYPLEEIQNLTLKRQLQALQQSGTSVLSADKSKRLNTILNTMSTIYSSGKVLDPNTQECLVLEPGLDDIMENSEDYSRRLWAWEAWRAEVGKQLRPLYEEYVVLENEMARANNYEDYGDYWRGDYEVTGAGDYDYSRDQLITDVERTFAEIKPLYEQLHAYVRAKLMDAYPSRISPTGCLPAHLLGDMWGRFWTNLYPLTVPFGEKSSIDVTKEMRNQSWDAKRIFKEAEKFFVSIGLPNMTQEFWDNSMLTEPGDGRKVVCHPTAWDLGKGDFRIKMCTKVTMDDFLTARHEMGHIQYDMAYATQPYLLRNGANEGFHEAVGEIMSLSAATPHYLKALGLLPPDFYEDSATEINFLLKQALKIVGTLPFTYMLEKWRWMVFKGEIPKEQWMQKWWEMKREIVGVVEPLPHDETYCDPACLFHVAEDYSFIRYYTRTIYQFQFHEALCQAAKHEGPLYKCDISNSTEAGQRLLQMLHLGKSEPWTSALENIVGVKTMDVKPLLNYFEPLLTWLKDQNRNSFVGWSTDWTPYSDQSIKVRISLKSALGEKAYEWNDNEMYLFRSSVAYAMREYFSKVRNETIPFGEEDVRVGDLKPRISFTFFVTSPKNVSDIIPRTEVEEAIRMSRGRINDAFRLDDNSLEFLGIEPTLGPPYEPPVT | 234 |
| minke whale ACE2, mFc-tagged (Fc fusion) QSTTEEQAKTFLQKFDHEAEDLSYRSSLASWNYNTNITDENVQKMNAARAKWSAFYEEQSRIAKTYPLEEIQNLTLKRQLQALQQSGTSVLSADKSKRLNTILNTMSTIYSSGKVLDPNTQEYLVLEPGLDDIMENSEDYNRRLWAWEGWRAEVGKQLRPFYEEYVVLENEMARANNYEDYGDYWRGDYEVTGADGYDYSRNQLIADVERTFAEIKPLYEQLHAYVRAKLMDAYPSRISPTGCLPAHLLGDMWGRFWTNLYPLTVPFGEKPSIDVTKEMQNQSWDAKRIFKEAEKFFVSIGLPNMTQEFWVNSMLTEPGDGRKVVCHPTAWDLGKGDFRIKMCTKVTMDDFLTAHHEMGHIQYDMAYATQPFLLRNGANEGFHEAVGEIMSLSAATPHYLKALGLLPPDFYEDNVTEINFLLKQALQIVGTLPFTYMLEKWRWMVFKGEIPKEQWMQKWWEMKREIVGVVEPLPHDETYCDPACLFHVAEDYSFIRYYTRTIYQFQFHEALCQTAKHEGPLYKCDISNSTEAGQRLLQMLHLGKSEPWTLALENIVGVKTMDVKPLLNYFEPLLTWLKEQNRNSPVGWSTDWTPYSDQSIKVRISLKSALGEKAYEWNDNEMYLFQSSVAYAMREYFSKVRNETIPFGEKDVWVSDLKPRISFNFFVTTPKNVSDIIPRTEVEEAIRMSRGRINDAFRLDDNSLEFLGIQPTLGPPYEPPVT | 175 |
| fur seal ACE2, mFc-tagged (Fc fusion) RSTTEDLVKTFLEKFNSEAEELSYQSSFASWNYNTNITDENVQKMNDAGAKWSAFYEEQSKQAKTYPLEEIQDSTVKRQLQALQHSGSSVLSVDKSQRLNTILNAMSTIYSTGKACNPNNPQECLLLEPGLDDIMANSRDYNERLWAWEGWRSEVGKQLRPLYEEYVALKNEMARANNYEDYGDYWRGDYEEEWTNGYNYSRDQLIKDVEQTFTQIQPLYEHLHAYVRAKLMDTYPSHISPTGCLPAHLLGDMWGRFWTNLYPLTVPFGQKPNIDVTDTMVNQSWDARRIFEEAEKFFVSVGLPNMTQGFWENSMLTEPGDSRKVVCHPTAWDLGKHDFRIKMCTKVTMDDFLTAHHEMGHIQYDMAYAAQPFLLRNGANEGFHEAVGEIMSLSAATPKHLKNIGLLPPGFSEDNETDINFLFKQALTIVGTLPFTYMLEKWRWMVFKGEIPKEQWMKKWWEMKRDLVGVVEPLPHDETYCDPASLFHVANDYSFIRYYTRTIYQFQFQEALCQIAKHEGPLHKCDISNSSEAGQTLLQMLKLGRSKPWTLALYRVVGAKNMDVRPLLNYFDPLFTWLKEQNRNSFVGWNTDWSPYADQSIKVRISLKSALGEKAYEWNDNEMYLFRSSIAYAMREYFSKVKKQTIPFVEDNVWVNNLKPRISFTFFVTSPGNMSDIIPRADVEEAIRMSRGRINDAFRLDDNSLEFLGIQPTLEPPYQPPVT | 129 |
| dolphin ACE2, mFc-tagged (Fc fusion) QSATEERAKTFLQKFDREAEDLSYQSSLASWNYNTNITDENVQKMNAAGAKWSAFYEEQSRIAKTYPLEEIRNLTLKRQLQVLQQSGTSVLSADKSKRLNAILSTMSTIYSSGKVLDPNTQESLVLEPGLDDIMENSKDYNRRLWAWEGWRAEVGKQLRPLYEEYVVLENEMARANNYEDYGDYWRGDYEVTGAGDYDYSRDQLIRDVERTFAEIKPLYEQLHAYVRAKLMDAYPSRISPTGCLPAHLLGDMWGRFWTNLYPLTVPFGERPSIDVTKEMQNQSWDAKRIFKEAEKFFVSIGLPNMTQGFWDNSMLTEPGDGRKVVCHPTAWDLGKGDFRIKMCTKVTMDDFLTAHHEMGHIQYDMAYATQPYLFRNGANEGFHEAVGEIMSLSAATPHYLKALGLLPPDFYEDSATEINFLLKQALTIVGTLPFTYMLEKWRWMVFKGEIPKEQWMQKWWEMKREIVGVVEPLPHDETYCDPACLFHVAEDYSFIRYYTRTIYQFQFHEALCQTAKHEGPLYKCDISNSTEAGQRLLQMLHLGKSEPWTSALERIVGVKTMDVKPLLNYFEPLLTWLKGQNRNSFVGWRTDWTPYSNQSIKVRISLKSALGEKAYEWNDNEMYLFRSSVAYAMREYFSKVRNKTIPFGEKDVWVSDLKPRISFNFFVTSPKNMSDIIPRTEVEEAIRMSRGRINDAFRLDDSSLEFLGVQPTLAPPYEPPVT | 562 |
| sea lion ACE2, mFc-tagged (Fc fusion) RSTTEDLVKTFLEKFNSEAEELSYQSSLASWNYNTNITDENVQKMNDAGAKWSAFYEEQSKQAKTYPLEEIQDSTVKRQLQALQHSGSSVLSADKSQRLNTILNAMSTIYSTGKACNPNNPQECLLLEPGLDDIMANSRDYNERLWAWEGWRSEVGKQLRPLYEEYVALKNEMARANNYEDYGDYWRGDYEEEWTNGYNYSRDQLIKDVEQTFTQIQPLYEHLHAYVRAKLMDTYPSHMSPTGCLPAHLLGDMWGRFWTNLYPLTVPFGQKPNIDVTDTMVNQSWDARRIFEEAEKFFVSVGLPNMTQGFWENSMLTEPGDSRKVVCHPTAWDLGKHDFRIKMCTKVTMDDFLTAHHEMGHIQYDMAYAAQPFLLRNGANEGFHEAVGEIMSLSAATPKHLKNIGLLPPGFSEDNETDINFLFKQALTIVGTLPFTYMLEKWRWMVFKGEIPKEQWMKKWWEMKRDLVGVVEPLPHDETYCDPASLFHVANDYSFIRYYTRTIYQFQFQEALCQIAKHEGPLHKCDISNSSEAGQTLLQMLKLGRSKPWTLALYRVVGAKNMDVRPLLNYFDPLFTWLKEQNRNSFVGWNTDWSPYADQSIKVRISLKSALGEKAYEWNDNEMYLFRSSIAYAMREYFSKVKNQMIPFVEDNVWVNNLKPRISFTFFVTSPGNMSDIIPRADVEEAIRMSRGRINDAFRLDDNSLEFLGIQPTLEPPYQPPVT | 171 |
